Reference: US6140490, “High affinity nucleic acid ligands of complement system proteins” (NeXstar Pharmaceuticals, Inc.)

B1: clone 50 (ssRNA)
RNA: GGGAGGACGAUGCGGGUGGAGUGGAGGUAUAACGGCCGGUAGCGCAUCCCACUCGGGUCUGCGGUAGACGACUCGCCCGA
modifications: 2'-NH2 C and U

How the values were obtained:
[1] = molecular target: Complement C1q (Homo sapiens, UniProt P02745;P02746;P02747 P02745:23-245,P02746:28-253,P02747:29-245); assay: filter; MgPBS, 37 C; still binds C1q on immune complexes; competed by SAP, beta-amyloid, CRP and A-chain 14-26 peptide; details: tags: Quidel; chain copies: 6; label: 32P
Description: Individual cloned DNA was T7 transcribed with α-[^32P]-ATP and the full length [^32P]-2'-NH_2-RNA or 2'-F-RNA was gel-purified (as above). RNA was suspended at approximately 5,000 cpm per 30 µl sample (<10 pM), and aliquots were incubated with various concentrations of C1q, C3 or C5 in MgPBS for 10 minutes at 37° C. Samples were then filtered through nitrocellulose, the filters washed with buffer and dried under an infrared lamp, and counted with addition of scintillation fluid (Ecoscint A, National Diagnostics, Atlanta, Ga.). A background sample of RNA alone was run in parallel. […] Filters were washed and counted.
RNA ligand binding to C1q was also measured in the presence of immune-complexes, which would block the binding of ligands to C1q head-groups. Immune complexes (IC) were formed by mixing 620 µg BSA at equivalence with 1 ml of rabbit anti-BSA (Sigma, St. Louis, Mo.) plus PEG 8000 added to 1% final concentration, and then the samples were incubated overnight at 4° C. The IC were pelleted by microfugation at 12,000 rpm for 10 minutes, washed five times with PBS, and suspended in 1 ml of MgPBS. […] Samples were incubated for 30 minutes at room temperature, microfuged, and the pellets and supernatants counted.

[2] = molecular target: Complement C5 (Homo sapiens, UniProt P01031;P01031 P01031:19-673,P01031:678-1676); assay: minimal structure from boundary analysis; called 38mer in text; details: tags: Quidel
Description: A secondary structure for an inhibitory C5 Nucleic Acid Ligand as determined by current art (Green et al. (1995) Chem & Biol. 2:683) is shown in FIG. 3 (SEQ ID NO:75). The smallest structure which would bind C5 is determined by: a) radiolabeling the C5 Nucleic Acid Ligand at both the 3' and the 5' end; b) treating the labeled Nucleic Acid Ligand by partial base-hydrolyzed to split a portion of the bonds between nucleotides; c) incubating the partially hydrolyzed Nucleic Acid Ligand with C5 protein and then eluting the bound Nucleic Acid Ligand; and d) analyzing the eluted Nucleic Acid Ligand on gels. In this procedure, the Nucleic Acid Ligand initially binds to C5 as bases are removed from the Nucleic Acid Ligand. When an essential base is removed, the Nucleic Acid Ligand is no longer able to bind. This first essential base determines the boundary of the minimal Nucleic Acid Ligand structure. For a human C5 Nucleic Acid Ligand the smallest binding structure is believed to comprise the sequence with proposed base-pairing pattern shown in FIG. 3.

Complement C5, sequence (P01031 19-673, chain 1 of 2): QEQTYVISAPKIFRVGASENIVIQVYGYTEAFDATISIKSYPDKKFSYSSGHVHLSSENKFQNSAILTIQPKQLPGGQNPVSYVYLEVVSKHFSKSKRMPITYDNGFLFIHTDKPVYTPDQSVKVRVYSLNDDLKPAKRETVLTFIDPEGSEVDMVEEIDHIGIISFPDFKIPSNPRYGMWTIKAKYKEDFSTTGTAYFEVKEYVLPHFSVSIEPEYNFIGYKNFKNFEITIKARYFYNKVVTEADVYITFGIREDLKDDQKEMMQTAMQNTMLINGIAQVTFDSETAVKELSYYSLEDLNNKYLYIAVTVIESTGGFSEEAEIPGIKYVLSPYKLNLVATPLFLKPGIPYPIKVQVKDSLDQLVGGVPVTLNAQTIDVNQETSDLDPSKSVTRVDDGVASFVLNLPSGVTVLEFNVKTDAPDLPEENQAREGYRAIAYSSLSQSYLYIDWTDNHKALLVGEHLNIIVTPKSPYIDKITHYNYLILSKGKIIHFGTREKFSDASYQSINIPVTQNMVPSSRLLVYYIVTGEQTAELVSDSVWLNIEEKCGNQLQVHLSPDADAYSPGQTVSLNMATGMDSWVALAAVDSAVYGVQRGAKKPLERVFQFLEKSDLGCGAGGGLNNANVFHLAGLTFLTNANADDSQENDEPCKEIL
Complement C5, sequence (P01031 678-1676, chain 2 of 2): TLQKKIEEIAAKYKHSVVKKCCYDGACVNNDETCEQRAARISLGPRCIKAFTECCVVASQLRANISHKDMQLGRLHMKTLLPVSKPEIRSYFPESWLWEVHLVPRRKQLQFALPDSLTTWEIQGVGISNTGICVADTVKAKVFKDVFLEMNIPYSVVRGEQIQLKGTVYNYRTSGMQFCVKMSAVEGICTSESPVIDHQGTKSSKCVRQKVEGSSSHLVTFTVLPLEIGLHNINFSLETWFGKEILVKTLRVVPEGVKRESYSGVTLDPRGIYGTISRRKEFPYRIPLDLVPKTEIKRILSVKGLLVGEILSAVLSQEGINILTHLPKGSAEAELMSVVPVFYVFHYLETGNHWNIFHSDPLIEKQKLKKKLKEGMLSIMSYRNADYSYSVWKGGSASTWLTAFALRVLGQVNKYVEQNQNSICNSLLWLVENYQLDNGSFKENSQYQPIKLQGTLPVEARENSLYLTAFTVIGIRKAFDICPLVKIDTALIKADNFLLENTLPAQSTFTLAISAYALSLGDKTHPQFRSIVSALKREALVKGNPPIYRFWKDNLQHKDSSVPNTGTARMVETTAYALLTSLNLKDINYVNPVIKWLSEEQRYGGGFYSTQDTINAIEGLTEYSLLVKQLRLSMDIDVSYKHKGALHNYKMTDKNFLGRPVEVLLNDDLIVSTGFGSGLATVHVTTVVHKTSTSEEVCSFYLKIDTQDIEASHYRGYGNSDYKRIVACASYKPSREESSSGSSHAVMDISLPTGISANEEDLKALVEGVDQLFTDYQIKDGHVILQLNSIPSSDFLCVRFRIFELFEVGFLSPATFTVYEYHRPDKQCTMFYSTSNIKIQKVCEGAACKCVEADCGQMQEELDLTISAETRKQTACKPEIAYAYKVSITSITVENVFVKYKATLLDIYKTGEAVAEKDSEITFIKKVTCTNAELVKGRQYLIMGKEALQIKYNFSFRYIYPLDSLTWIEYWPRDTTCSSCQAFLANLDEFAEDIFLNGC
Complement C1q, sequence (P02745 23-245, chain 1 of 3): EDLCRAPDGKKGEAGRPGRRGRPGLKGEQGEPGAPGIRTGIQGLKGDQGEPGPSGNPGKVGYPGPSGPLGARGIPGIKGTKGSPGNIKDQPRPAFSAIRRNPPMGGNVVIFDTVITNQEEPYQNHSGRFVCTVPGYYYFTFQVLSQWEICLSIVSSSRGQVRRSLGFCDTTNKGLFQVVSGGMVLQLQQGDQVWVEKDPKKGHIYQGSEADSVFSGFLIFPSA
Complement C1q, sequence (P02746 28-253, chain 2 of 3): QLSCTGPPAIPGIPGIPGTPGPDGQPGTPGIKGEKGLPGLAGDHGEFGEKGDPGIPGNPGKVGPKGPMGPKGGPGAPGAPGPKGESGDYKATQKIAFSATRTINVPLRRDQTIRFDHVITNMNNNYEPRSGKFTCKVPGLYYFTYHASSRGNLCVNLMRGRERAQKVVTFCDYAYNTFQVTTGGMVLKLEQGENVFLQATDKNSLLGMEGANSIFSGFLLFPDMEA
Complement C1q, sequence (P02747 29-245, chain 3 of 3): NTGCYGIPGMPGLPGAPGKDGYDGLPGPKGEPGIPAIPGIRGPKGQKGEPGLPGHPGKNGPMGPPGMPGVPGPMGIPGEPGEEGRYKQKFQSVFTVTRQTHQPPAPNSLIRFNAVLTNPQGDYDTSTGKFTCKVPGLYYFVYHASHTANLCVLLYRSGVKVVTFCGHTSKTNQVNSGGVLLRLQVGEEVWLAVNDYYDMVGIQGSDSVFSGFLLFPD

| Binder | Kd [1] [pM] | binding result [2] |
| --- | --- | --- |
| B1 | 979 | – |
| GACGAUGCGGUCUCAUGCGUCGAGUGUGAGUUUACCUUCGUC (ssRNA, 2'-F C and U) [truncated C5 ligand (FIG. 3)] | – | binds |
